B1: CPEB3 Ribozyme (parent)
chain: GGGGGCCACAGCAGAAGCGUUCACGUCGCGGCCCCUGUCAGAUUCUGGUGAAUCUGCGAAUUCUGCUGU

Variants of: B1
Test: self-cleavage, relative activity (ratio to wild type); higher = more cleavage; co-transcriptional

In order of rising self-cleavage:
1. GGGGGCCACAGCAGAAGCCUUCACGUCGCGGCCCCUGUCAGAUUCUGGUGAAUCUGCGAAUUCUGUUGU  0.105
2. GGGGGCCACAGCAGAAGCCUUCACGUCGCGGCCCCUGUCAGAUUCUGGUGAAUUUGCGAAUUCUGCUGU  0.113
3. GGGGGCCACAGCAGAAGCCUUCACGUCGCGGCCCCUGUCAGAUUCUGGUGAAUCUGCGAAUUCUGAUGU  0.114
4. GGGGGCCACAGCAGAAGCCUUCACGUCGCGGCCCCUGUCAGAUUGUGGUGAAUCUGCGAAUUCUGCUGU  0.119
5. GGGGGCCACAGCAGAAGCCUUCACGUCGCGGCCCCUGUCAGAUUCUGGUGAAUCUGCGAAUUCUCCUGU  0.12
6. GGGGGCCACAGCAGAAGCCUUCACGUCGCGGCCCCUGUCAGAUUCUGGUGAAUCUGCCAAUUCUGCUGU  0.12
7. GGGGGCCACAGCAGAAGCCUUCACGUCGCGGCCCCUGUCAGAUUCUGGUGAAUCUGCGAAUUCUACUGU  0.127
8. GGGGGCCACAGCAGAAGCCUUCACGUCGCCGCCCCUGUCAGAUUCUGGUGAAUCUGCGAAUUCUGCUGU  0.129
9. GGGGGCCACAGCAGAAGCCUUCACGUCGCGGCCCCUGUCAGAUUCUGGUGAAUCUGCGAAUUCUGCUUU  0.13
10. GGGGGCCACAGCAGAAGCCUUCACGUCCCGGCCCCUGUCAGAUUCUGGUGAAUCUGCGAAUUCUGCUGU  0.131
11. GGGGGCCACAGCAGAAGCCUUCACGUCGCGGCCCCUGUCAGAUUCUGGUGAAUCUGGGAAUUCUGCUGU  0.132
12. GGGGGCCACAGCAGAAGCCUUCACGUCGCGACCCCUGUCAGAUUCUGGUGAAUCUGCGAAUUCUGCUGU  0.132
13. GGGGGCCACAGCAGAAGCCUUCACGUCGCGGCCCCUGUCAGAUUCUGGUGAAUCUGCGAAUUCUUCUGU  0.133
14. GGGGGCCACAGCAGAAGCCUUCACCUCGCGGCCCCUGUCAGAUUCUGGUGAAUCUGCGAAUUCUGCUGU  0.141
15. GGGGGCCACAGCAGAAGCCUUCACGUCGCGGCCCCUGUCAAAUUCUGGUGAAUCUGCGAAUUCUGCUGU  0.142
16. GGGGGCCACAGCAGAAGCCUUCACGUCUCGGCCCCUGUCAGAUUCUGGUGAAUCUGCGAAUUCUGCUGU  0.142
17. GGGGGCCACAGCAGAAGCCUUCACGUCGCGGCCCCUUUCAGAUUCUGGUGAAUCUGCGAAUUCUGCUGU  0.143
18. GGGGGCCACAGCAGAAGCCUUCACGUCGCGGCCCCUGUCAGAUUCUCGUGAAUCUGCGAAUUCUGCUGU  0.147
19. GGGGGCCACAGCAGAAGCCUUCACGUCACGGCCCCUGUCAGAUUCUGGUGAAUCUGCGAAUUCUGCUGU  0.147
20. GGGGGCCACAGCAGAAGCCUUCACGUCGCGGCCCCUGUCAGAUUCUGGUAAAUCUGCGAAUUCUGCUGU  0.147
21. GGGGGCCACAGCAGAAGCCUUCACGUCGCGGCCCCUGUCAGAUUCUUGUGAAUCUGCGAAUUCUGCUGU  0.152
22. GGGGGCCACAGCAGAAGCCUUCACGUCGCGCCCCCUGUCAGAUUCUGGUGAAUCUGCGAAUUCUGCUGU  0.153
23. GGGGGCCACAGCAGAAGCCUUCACGUCGCGGCCCCUGUCAGAUUUUGGUGAAUCUGCGAAUUCUGCUGU  0.154
24. GGGGGCCACAGCAGAAGCCUUCACGUCGCGGCCCCUGUCAGAUUCUGGUGAAUAUGCGAAUUCUGCUGU  0.158
25. GGGGGCCACAGCAGAAGCCUUCACGUCGCGGCCCCUGUCAGAUUCUGGUGAAUCUGAGAAUUCUGCUGU  0.158
26. GGGGGCCACAGCAGAAGCCUUCACGUCGCAGCCCCUGUCAGAUUCUGGUGAAUCUGCGAAUUCUGCUGU  0.159
27. GGGGGCCACAGCAGAAGCCUUCACGUCGCGGCCCCUGUCAGAUUCUGGUGAAUCUACGAAUUCUGCUGU  0.16
28. GGGGGCCACAGCAGAAGCCUUCACGUCGCGGCCCCUGUCAGAUUCUGGUGAAUGUGCGAAUUCUGCUGU  0.163
29. GGGGGCCACAGCAGAAGCCUUCACGUCGCGGCCCCUGUCAGAUUCUGGUGAAUCUCCGAAUUCUGCUGU  0.169
30. GGGGGCCACAGCAGAAGCCUUCACGUCGCGGCCCCUGUCACAUUCUGGUGAAUCUGCGAAUUCUGCUGU  0.17
31. GGGGGCCACAGCAGAAGCCUUCACGUCGCGGCCCCUGUCAGAUUCUGGUGAAUCUGCGAAUUCUGGUGU  0.172
32. GGGGGCCACAGCAGAAGCCUUCACGUCGCGGCCCCUGUCAGAUUAUGGUGAAUCUGCGAAUUCUGCUGU  0.178
33. GGGGGCCACAGCAGAAGCCUUCACGUCGCGGCCCCUCUCAGAUUCUGGUGAAUCUGCGAAUUCUGCUGU  0.183
34. GGGGGCCACAGCAGAAGCCUUCACGUCGCGGCCCCUGUCAGAUUCUGGUUAAUCUGCGAAUUCUGCUGU  0.186
35. GGGGGCCACAGCAGAAGCCUUCACGUCGCGGCCCCUGUCAGAUUCUGGUGAAUCUGCGAAUUCUGCUCU  0.187
36. GGGGGCCACAGCAGAAGCCUUCACGUCGCGGCCCCUGUCAGAUUCUGGUGAAUCUGCUAAUUCUGCUGU  0.19
37. GGGGGCCACAGCAGAAGCCUUCACGUCGCGGCCCCUGUCAGAUUCUGGUGAAUCUGCGAAUUCUGCUAU  0.201
38. GGGGGCCACAGCAGAAGCCUUCACGUCGCGUCCCCUGUCAGAUUCUGGUGAAUCUGCGAAUUCUGCUGU  0.217
39. GGGGGCCACAGCAGAAGCCUUCACGUCGCGGCCCCUAUCAGAUUCUGGUGAAUCUGCGAAUUCUGCUGU  0.225

— the RNAGym collection of RNA variant scans (doi:10.7554/elife.80360)
